Results published in the supplement of paper PMC9170038.

Key:
MS2 coat protein [1] = test: apparent KD of MS2 coat protein, switch OFF state (with FMN for OFF switches, without FMN for ON switches); designed switch direction (-1 OFF switch, 1 ON switch): 1; higher = weaker reporter binding; settings: FMN input: 0 or 200 uM; Eterna round: R93 (includes R88 designs)
Summary of the method: (§1)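 Binding of SNAP-549-labelled MS2 coat protein was measured on designed RNA switches transcribed on-chip from Illumina sequencing clusters. The protein rose in twofold steps from 0.7 or 1.5 nM to 3 µM, with 0.8–1.5 h per step early on and 10–20 min per step later, in 100 mM Tris-HCl pH 7.5, 80 mM KCl, 4 mM MgCl2, without or with constant ligand. Each design's apparent KD is the median of fits to its normalised cluster binding curves.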

MS2 coat protein [2] = test: apparent KD of MS2 coat protein, switch ON state; designed switch direction (-1 OFF switch, 1 ON switch): 1; higher = weaker reporter binding; settings: FMN input: 0 or 200 uM; Eterna round: R93 (includes R88 designs)
Summary of the method: as §1

Sequence	apparent KD of MS2 coat protein (MS2 coat protein [1]) [nM]	apparent KD of MS2 coat protein (MS2 coat protein [2]) [nM]
AACUAACAUGAGGAUCACCCAUGUAUUCAAACAUGAGGAUAUAUAACACAUCAUCAACAGAUAGAAGGCAUAAAUA [JR_SS001_Sub1204]	82.3	93
AAGAAACAUGAGGAUCACCCAUGUAAAUUCAAGAGAGGAUAUCGUACAUGGAAGAUUCAACGAGAAGGCUCUAGAA [Pariah 3 (MS2 Riboswitches - Same State 1)]	83	19.3
AAGAAACAUGAGGAUCACCCAUGUAAGAUAAACACAGGAUAUGCGAAAAUAAAUAAAUAAGCAGAAGGGUGAAAAG [Mat - Same State 1 - Tesla mod - 75]	32.4	19.9
AAGAAACAUGAGGAUCACCCAUGUAAGAUAAACACAGGAUAUGCGAAUAAAAUAAAUAAAGCAGAAGGGUGAAGAA [Mat - Same State 1 - Tesla mod - D150]	34.3	17.1
AAGAAACAUGAGGAUCACCCAUGUACCCAAAAGGCAGGAUAUGGGAAAGAAAGAAAGAAACCAGAAGGGCCAUGAA [Sogdianus]	57.1	30.1
AAGAAACAUGAGGAUCACCCAUGUGAGAUAAACACAGGAUAUGCGAAAAUAAAUAAAUAAGCAGAAGGGUGAAGAA [Mat - Same State 1 - Tesla mod - 69]	82.6	30.2
AAGAACGUGGUGUAGGAUAUACUAAUAGUCACAUGAGGAUCACCCAUGUUCAUAUAUAUGAACGAGUAGAAGGACGACGAAAAAA [Mat - Same state - Malcolm Mod - D107]	147	137
AAGACACAUGAGGAUCACCCAUGUCAAGAGAGACGAGGAUAUCUGAAUUAAUUAAAUUAAGGAGAAGGCGUGAAAA [Same State of Confusion2]	58.1	23.1
AAGAGACAUGAGGAUCACCCAUGUAGGAUUAUGGGAGGAUAUACAAAGACGAGAGUCAGAGUAGAAGGCCUAGGAC [salish99-ss1-132(!)]	53.8	19.3
AAGGCACAUGAGGAUCACCCAUGUUAGCCGCGACGAGGAUAUGGGAACGCGUCAGCGGAAUUAGAAGGUGUGGUGA [Qusoquan]	37.8	35.6
AAGUCACAUGAGGAUCACCCAUGUCGUAAACGAUGAGGAUAUAGGAAGAAAAAAAAAAAACUAGAAGGUAUUACAA [SameState1-02]	28.6	32.5
AAUAAACAUGAGGAUCACCCAUGUACCUACCACUAAGGAUAUGGGCGAAUAACAGCUCGGCCAGAAGGUAGAGGUG [Onususer]	82.9	116
AAUAACUAUAGCAAGGAUAUCCGAAACAAGACAUGAGGAUCACCCAUGUAAUAAGACAAAAUAUAGGAGAAGGUGCAGGGUGAAA [JR_SS002_Sub010]	116	75.3
AAUAAGACUAGCAAGGAUAUCUAAAACGAAACAUGAGGAUCACCCAUGUAACGAGUACACGUAUCAGAGAAGGUGCAGGGUGAAA [JR_SS002_Sub305]	16.2	36.1
AAUACACAUAGUCAGGAUAUCAAAAAUAAGACAUGAGGAUCACCCAUGUAAUAAGUAAAAGUAAAUGAGAAGGGACAGGGUGACC [JR_SS002_Sub403]	199	1560
AAUACCACUAGCAAGGAUAUCUAAAACGAAACAUGAGGAUCACCCAUGUGACGACCACACGUAUCAGAGAAGGUGCAGGGUGAAU [JR_SS002_Sub306]	24	24.2
AAUAGACAUGAGGAUCACCCAUGUAGAAUUAUGGGAGGAUAUACAAAGACGAGAGUCAGAGUAGAAGGCCUAGGAG [salish99-ss1-150]	48.3	22.1
AAUAUACAUGAGGAUCACCCAUGUAUUAAUAGCUGAGGAUAUACGGGUGAAAAUAGCAUAGUAGAAGGCGGGUGUA [SameState1 Malc#10]	144	107
AAUAUACAUGAGGAUCACCCAUGUUAGGUGGGACUAGGAUAUCAAAAUAAAUAAAGAACAUGAGAAGGAGUAUAAA [JR_SS001_Sub017]	178	75.3
